Assay results as given in US20190016825A1 (JIANGSU HENGRUI MEDICINE, published 2019).
Where a chain is given by its changes, count along the chain named.

B1: h001-14 (antibody, human IgG1, V domains shown)
VH: QVQLVQSGAEVKKPGASVKVSCKASGYTFNDYWMHWVRQAPGQGLEWMGYINPSSGFTKYHQNFKDRVTMTRDTSISTAYMELSRLTSDDTAVYYCARQYDYDEDWYFDVWGQGTTVTVSS
VL: DIQMTQSPSSLSASVGDRVTITCKSSQSLLNSRTRKNFLAWYQQKPGKAPKLLIYWASTRESGVPDRFSGSGSGTDFTLTISSLQPEDFATYYCKQSFNLFTFGQGTKLEIK
notes: Variable regions only; also called h001_VH.1C + h001_VL.1A
B2: h001-17 (antibody, human IgG1, V domains shown)
VH: B1 VH with R72A, T74K
VL: B1 VL with D66S
notes: Variable regions only; also called h001_VH.1D + h001_VL.1
B3: h001-12 (antibody, human IgG1, V domains shown)
VH: B1 VH with N30T
VL: B1 VL with Q3V, T5S, A49S
notes: Variable regions only; also called h001_VH.1B + h001_VL.1C
B4: h001-5 (antibody, human IgG1, V domains shown)
VH: B1 VH with T87R
VL: B1 VL with D66S
notes: Variable regions only; also called h001_VH.1A + h001_VL.1
B5: h001-6 (antibody, human IgG1, V domains shown)
VH: B1 VH with T87R
VL: B1 VL
notes: Variable regions only; also called h001_VH.1A + h001_VL.1A
B6: h001-1 (antibody, human IgG1, V domains shown)
VH: B1 VH with N30T, T87R
VL: B1 VL with D66S
notes: Variable regions only; also called h001_VH.1 + h001_VL.1
B7: h001-23 (antibody, human IgG1, V domains shown)
VH: B1 VH with R38K, M48I, R67K, V68A, M70L, R72A, T74K
VL: B1 VL with T5S
notes: Variable regions only; also called h001_VH.1E + h001_VL.1B
B8: h001-20 (antibody, human IgG1, V domains shown)
VH: B1 VH with R72A, T74K
VL: B1 VL with Q3V, T5S, A49S
notes: Variable regions only; also called h001_VH.1D + h001_VL.1C
B9: h001-13 (antibody, human IgG1, V domains shown)
VH: B1 VH
VL: B1 VL with D66S
notes: Variable regions only; also called h001_VH.1C + h001_VL.1
B10: h001-21 (antibody, human IgG1, V domains shown)
VH: B1 VH with R38K, M48I, R67K, V68A, M70L, R72A, T74K
VL: B1 VL with D66S
notes: Variable regions only; also called h001_VH.1E + h001_VL.1
B11: h001-3 (antibody, human IgG1, V domains shown)
VH: B1 VH with N30T, T87R
VL: B1 VL with T5S
notes: Variable regions only; also called h001_VH.1 + h001_VL.1B
B12: h001-16 (antibody, human IgG1, V domains shown)
VH: B1 VH
VL: B1 VL with Q3V, T5S, A49S
notes: Variable regions only; also called h001_VH.1C + h001_VL.1C
B13: h001-11 (antibody, human IgG1, V domains shown)
VH: B1 VH with N30T
VL: B1 VL with T5S
notes: Variable regions only; also called h001_VH.1B + h001_VL.1B
B14: h001-7 (antibody, human IgG1, V domains shown)
VH: B1 VH with T87R
VL: B1 VL with T5S
notes: Variable regions only; also called h001_VH.1A + h001_VL.1B
B15: h001-19 (antibody, human IgG1, V domains shown)
VH: B1 VH with R72A, T74K
VL: B1 VL with T5S
notes: Variable regions only; also called h001_VH.1D + h001_VL.1B
B16: h001-18 (antibody, human IgG1, V domains shown)
VH: B1 VH with R72A, T74K
VL: B1 VL
notes: Variable regions only; also called h001_VH.1D + h001_VL.1A
B17: h001-22 (antibody, human IgG1, V domains shown)
VH: B1 VH with R38K, M48I, R67K, V68A, M70L, R72A, T74K
VL: B1 VL
notes: Variable regions only; also called h001_VH.1E + h001_VL.1A
B18: h001-15 (antibody, human IgG1, V domains shown)
VH: B1 VH
VL: B1 VL with T5S
notes: Variable regions only; also called h001_VH.1C + h001_VL.1B
B19: h001-2 (antibody, human IgG1, V domains shown)
VH: B1 VH with N30T, T87R
VL: B1 VL
notes: Variable regions only; also called h001_VH.1 + h001_VL.1A
B20: h001-24 (antibody, human IgG1, V domains shown)
VH: B1 VH with R38K, M48I, R67K, V68A, M70L, R72A, T74K
VL: B1 VL with Q3V, T5S, A49S
notes: Variable regions only; also called h001_VH.1E + h001_VL.1C

What follows are binders tested against T1, PCSK9-D374Y-BP15-His6 (human, UniProt Q8NBP7 31-692, biotin on the BP15 biotin receiving peptide) (assay: ELISA, bio-PCSK9-Y captured on streptavidin plate).
T1 construct: also called PCSK9-Y; mutant PCSK9
Method: The binding ability of anti-PCSK9 antibodies of the present invention to PCSK9-Y was detected by measuring the amount of antibodies binding to PCSK9-Y (mutant PCSK9, SEQ ID NO: 6) fixed on the ELISA plate.
Streptavidin (sigma, CAT#54762) was diluted to 2 μg/ml with PBS and coated into 96-well ELISA plate at 4° C. overnight. The plate was washed and then blocked with Tris buffer (including 0.9 mM CaCl₂, 0.05% Tween 20 and 5% skim milk) at 37° C. for 2 hours. Then the plate was washed again and 100 μl/well of the biotin-labeled PCSK9-Y, produced in-house, (bio-PCSK9-Y, diluted with Tris buffer containing 0.9 mM CaCl₂, 0.05% Tween 20 and 1% skim milk) was added and incubated at 37° C. for 1 hour. After the wash step, different concentrations of diluted PCSK9 antibody samples were added to the plate and incubated at 37° C. for 1 hour. Then the plate was washed again and HRP-goat-anti-human (H+L) antibody (Jackson ImmunoResearch, CAT#109-035-088) was added and incubated at 37° C. for 1 hour. Then the plate was washed again and tetramethylbenzidine solution was added for development. Finally, the stop solution was added and the OD450 value was measured on the Microplate reader, and then EC50 was calculated.
The results of ELISA test for the binding ability of chimeric antibodies and back-mutated antibodies of the present invention to mutant PCSK9 are shown in table 6.

| Binder | EC50 [µg/mL] |
| --- | --- |
| B1 | 0.0112 |
| B2 | 0.0161 |
| B3 | 0.0124 |
| B4 | 0.0152 |
| B5 | 0.0144 |
| B6 | 0.0132 |
| B7 | 0.0125 |
| B8 | 0.017 |
| B9 | 0.0096 |
| B10 | 0.0119 |
| B11 | 0.0152 |
| B12 | 0.0111 |
| B13 | 0.017 |
| B14 | 0.0137 |
| B15 | 0.0204 |
| B16 | 0.0191 |
| B17 | 0.0111 |
| B18 | 0.0178 |
| B19 | 0.0157 |
| B20 | 0.017 |

These binders were tested against T1, PCSK9-D374Y-BP15-His6 (assay: blocking ELISA, LDLR-FC (SEQ ID NO: 8) coated, bio-PCSK9-Y plus antibody).
Method: The blocking abilities of anti-PCSK9 antibodies to the binding of LDLR-FC (SEQ ID NO: 8) to PCSK9-Y (mutant PCSK9, SEQ ID NO: 6) were detected by measuring the amount of PCSK9-Y binding to LDLR in the presence of the antibodies.
LDLR-FC was diluted to 2 μg/ml with phosphate buffer and coated in the 96-well ELISA plate (Costar, CAT#3590), then incubated at 4° C. overnight. The plate was washed and then blocked with Tris buffer (including 0.9 mM CaCl₂, 0.05% Tween 20 and 5% skim milk) at 37° C. for 2 hours. Then the plate was washed again and 100 μl/well of the mixture of biotin-labeled PCSK9-Y (bio-PCSK9-Y, diluted to final concentration of […] with Tris buffer containing 0.9 mM CaCl₂, 0.05% Tween 20 and 1% skim milk) and antibody samples (diluted with Tris buffer containing 0.9 mM CaCl₂, 0.05% Tween 20 and 1% skim milk) were added and incubated at 37° C. for 1 hour. Then the plate was washed again and horseradish peroxidase-streptavidin (sigma, CAT#S2438) was added and incubated at 37° C. for 1 hour. Then the plate was washed and tetramethylbenzidine solution was added for development. Finally, the stop solution was added and the OD450 value was measured on the Microplate reader, then IC50 was calculated.
The results of blocking test for the blocking effects of the chimeric antibodies and back-mutated antibodies of the present invention on the binding of LDLR-FC/PCSK9-Y are shown in table 7.

| Binder | IC50 [µg/mL] |
| --- | --- |
| B4 | 0.468 |
| B5 | 0.437 |
| B6 | 0.566 |
| B11 | 0.475 |
| B14 | 0.515 |
| B19 | 0.455 |

What follows are binders tested against T2, PCSK9-BP15-His6 (human, UniProt Q8NBP7 31-692, biotin on the BP15 biotin receiving peptide) (assay: ELISA, bio-WT-PCSK9 captured on streptavidin plate).
T2 construct: It holds a signal peptide (underlined in print); also called WT PCSK9; bio-WT-PCSK9
Method: The binding ability of anti-PCSK9 antibodies of the present invention to PCSK9 was detected by measuring the amount of antibodies binding to wild-type PCSK9 protein (WT PCSK9, SEQ ID NO: 5) fixed on the ELISA plate.
Streptavidin (sigma, CAT#S4762) was diluted to 2 μg/ml with PBS and coated into 96-well ELISA plate, at 4° C. overnight. The plate was washed and then blocked with Tris buffer (including 0.9 mM CaCl2, 0.05% Tween 20 and 5% skim milk) at 37° C. for 2 hours. Then the plate was washed again and 100 μl/well of the biotin-labeled PCSK9, produced in-house, (bio-WT-PCSK9, diluted with Tris buffer containing 0.9 mM CaCl2, 0.05% Tween 20 and 1% skim milk), was added and incubated at 37° C. for 1 hour. After the wash step, different concentrations of diluted PCSK9 antibody samples was added to the plate and incubated at 37° C. for 1 hour. Then the plate was washed again and HRP-goat-anti-human (H+L) antibody (Jackson ImmunoResearch, CAT#109-035-088) was added and incubated at 37° C. for 1 hour. Then the plate was washed again and tetramethylbenzidine solution was added for development. Finally, the stop solution was added and the OD450 value was measured on the Microplate reader, and then EC50 was calculated.

| Binder | EC50 [µg/mL] |
| --- | --- |
| B1 | 0.0084 |
| B2 | 0.0114 |
| B3 | 0.0103 |
| B4 | 0.0141 |
| B5 | 0.01 |
| B6 | 0.0084 |
| B7 | 0.0118 |
| B8 | 0.0126 |
| B9 | 0.0071 |
| B10 | 0.0145 |
| B11 | 0.0113 |
| B12 | 0.0082 |
| B13 | 0.0129 |
| B14 | 0.012 |
| B15 | 0.0139 |
| B16 | 0.0147 |
| B17 | 0.0123 |
| B18 | 0.011 |
| B19 | 0.0123 |
| B20 | 0.0092 |

What follows are binders tested against T2, PCSK9-BP15-His6 (assay: blocking ELISA, LDLR-FC (SEQ ID NO: 8) coated, bio-WT-PCSK9 plus antibody).
Method: The blocking abilities of PCSK9 antibodies of the present invention to the binding of LDLR-FC (produced in-house, sequence is shown in SEQ ID NO: 8) to PCSK9 (SEQ ID NO: 5) were detected by measuring the amount of PCSK9 binding to LDLR in the presence of the antibodies.
LDLR-FC was diluted to 5 μg/ml with phosphate buffer and coated in the 96-well ELISA plate, then incubated at 4° C. overnight. The plate was washed and then blocked with Tris buffer (including 0.9 mM CaCl₂, 0.05% Tween 20 and 5% skim milk) at 37° C. for 2 hours. Then the plate was washed again and 100 μl/well of the mixture of biotin-labeled PCSK9 (bio-WT-PCSK9, diluted to the final concentration of 2 μg/ml with Tris buffer containing 0.9 mM CaCl₂, 0.05% Tween 20 and 1% skim milk) and antibody samples (diluted with Tris buffer containing 0.9 mM CaCl₂, 0.05% Tween 20 and 1% skim milk) were added and incubated at 37° C. for 1 hour. Then the plate was washed again and horseradish peroxidase-streptavidin (Sigma, CAT#52438) was added and incubated at 37° C. for 1 hour. Then the plate was washed and tetramethylbenzidine solution was added for development. Finally, the stop solution was added and the OD450 was measured on the Microplate reader, then IC50 was calculated.

| Binder | IC50 [µg/mL] |
| --- | --- |
| B4 | 4.32 |
| B5 | 0.662 |
| B6 | 0.5 |
| B11 | 0.702 |
| B14 | 0.652 |
| B19 | 0.675 |
